Source: US10677782B2, “Methods of determining interferon having direct inhibitory effects on tumors and uses thereof” (SUPERLAB FAR EAST LIMITED, priority 2013, dated 2020)

What was measured:
[1] = Tolerability and body weight of tumor-bearing mice, Example 4; assay type: in vivo, BALB/cA nu/nu mice; details: 0.05 mg/mouse i.t. every other day; day 17; reasons unknown
Description: Animals were assigned to treatment groups randomly. Initially, all animals were placed in one large animal cage. For assignment to the study, they were later separately housed, with 6 animals per cage per treatment group. Groups 1 and 2 are Control groups in which the animals were each administered the vehicle every other day after the first treatment. […] The animals in Groups 4, 5 and 6 were each given rSIFN-co every other day after the first treatment at 0.15 mg/mouse (Group 4) or 0.10 mg/mouse (Group 5) or 0.05 mg/mouse (Group 6), respectively. Tumor growth was monitored by measuring the length and width of each tumor twice a week during the course of the study. Each animal was also weighed twice a week during the course of the study.
The study was conducted as in Example 3, except as specifically indicated otherwise. Human xenografts for injection into the test animals were first established and prepared in a similar manner as in Example 1, but by inoculating 2.5×10^6 SPC-A4 cells subcutaneously (s.c.) in nude mice and passaging the well-grown tumors twice in nude mice. The 1.5 mm^3 fragments were then used for s.c. implantation into the test animals. The body weight of the animals averaged 22±2 g at dose initiation. In contrast to Example 3, the animals used in this study were all male and the study was conducted over a 21 day treatment period.

different cancer cells = assay: Cell viability, Am-Blue assay, 48 hr, across the cancer cell lines tested; assay type: cell-based, human; details: 100 mcg/ml, any of the cancer cell lines
Description: Cell culture and reagents human lung cancer cell lines (A549, H1299, H460, Calu-1), human liver cancer cell lines (SMMC-7721, Huh-7, CL-1), human cervical carcinoma cell line (Hela), human breast cancer cell line (MDA-MB-231), human pancreatic cancer cell line (PANC-1) and human colon cancer cell lines (SW620, HT29, SW480) were purchased from the Shanghai Cell Collection (Shanghai, China). The above cell lines were cultured in 5% CO2 at 37° C. in corresponding complete growth medium formulated by the Shanghai Cell Collection, with 10% heat-inactivated fetal bovine serum (Biochrom, Germany), supplemented with 4 mM glutamine, 50 U/ml penicillin and […] streptomycin.
About 5×10^3 cells in 100 μl complete medium per well were plated in 96-well plates, incubated overnight, and then treated with IFN α-2b or rSIFN-co at concentrations of 100 μg/ml, 50 μg/ml, 25 μg/ml, 12.5 μg/ml, 6.25 μg/ml, 3.13 μg/ml, 1.56 μg/ml, 0.78 μg/ml, 0.39 μg/ml, and 0.20 μg/ml, respectively, for about 48 hr, at which time the cells were harvested for analysis. The cell viability rate was evaluated by SunBio Am-Blue assay kit (Cat #: SBAB8025, Shanghai SBO Medical Biotechnology Co., Ltd, Shanghai, China). […] Results are shown in FIG. 5, in which viability of the tumor cells was expressed as a percentage relative to control cells that were not treated. […]

LRP6 mRNA in H460 cells = assay: qPCR of Wnt-related receptor LRP6; assay type: cell-based, human; details: 10 μg/ml, 24 hr; vs Mock
Description: Total mRNA was isolated using TRIZOL Reagent (Invitrogen, Carlsbad, Calif.) according to the manufacturer's instructions. Complementary DNA (cDNA) was synthesized using a RT-PCR Kit (Cat #: FSQ-101, TOYOBO, Japan) according to the manufacturer's instructions and then subjected to qPCR with a SYBR Green PCR kit (Cat #: QPK-201, TOYOBO, Japan). The primers of the four Wnt pathway target genes were as follows: Axin2 sense primer: 5′-[…]-3′ (SEQ ID NO:8) and antisense primer: 5′-[…]-3′ (SEQ ID NO: 9); CD24 sense primer: 5′-[…]-3′ (SEQ ID NO: 10) andantisense primer: 5′-[…]-3′ (SEQ ID NO: 11); Survivin sense primer: 5′-[…]-3′ (SEQ ID NO: 12) and antisense primer: 5′-[…]-3′ (SEQ ID NO: 13) and ID2 sense primer: 5′-[…]-3′ (SEQ ID NO: 14) and antisense primer: 5′-[…]-3′ (SEQ ID NO: 15).
The amplification protocol consisted of incubations at 95° C. for 1 minute, 40 cycles (95° C. for 15 seconds, 60° C. for 15 seconds, 72° C. for 30 seconds). Incorporation of the SYBR Green dye into PCR products was monitored in real time with a Bio-Rad Detection System and subsequently analyzed using Bio-Rad CFX manager 2.1 software. The samples were pooled for each condition and run in duplicate. […]
The regulation of LRP6/FZD6 by rSIFN-co was investigated. […] Results were recorded as relative mRNA level of either LRP6 or FZD6 relative to GAPDH.

B1: rSIFN-co: Recombinant super-compound interferon; amino acid sequence SEQ ID NO: 1 (same as interferon alfacon-1), encoded by SEQ ID NO: 2, novel tertiary structure (protein)
chain: MCDLPQTHSLGNRRALILLAQMRRISPFSCLKDRHDFGFPQEEFDGNQFQKAQAISVLHEMIQQTFNLFSTKDSSAAWDESLLEKFYTELYQQLNDLEACVIQEVGVEETPLMNVDSILAVKKYFQRITLYLTEKKYSPCAWEVVRAEIMRSFSLSTNLQERLRRKE
modifications: Amino acid sequence of recombinant interferon
deaths [1]: one mouse
cell viability (different cancer cells): cell viability could not be detected
relative expression of the LRP6 mRNA (LRP6 mRNA in H460 cells): down-regulated to various extents
